In the test the target is T1, Human CD1d/β2M (human, UniProt P15813 20-301; P61769 21-119).
T1 construct: also called hCD1d; recombinant human CD1d
Nature of the test: SPR, transfection supernatant. (In general: SPR reads the build-up and loss of mass on a sensor chip optically.)

Changes are numbered by the printed parent chain.

B1: 401.11.87 (antibody, name in Kabat numbering, V domains shown)
VH: QVQLVGSGGGLVKPGRSLRLSCAASGFTFDDYAMHWVRQAPGKGLEWVATIIWNSAIIGYADSVKGRFIVSRDNAKNSLYLQMNSLRAEDMALYYCAKDMCSSSSCPDGYFDSWGQGTLVTVSS
VL: DIQMTQSPSSVSASVGDRVTITCRASQHISSWLAWYQQKPGKAPNLLIYAASSLQSGVSSRFSGSGSGTDFTLTISSLQPEDFATYYCQQANRFPLTFGGGTKLEIKR
What is called Kd is the free concentration of one partner at which half of the binding sites on the other are occupied at equilibrium, for simple one-to-one binding. A high value points to weaker binding. B1 showed a Kd of 7.13 nM.

B2: 401.11.117 (antibody, name in Kabat numbering, V domains shown)
VH: B1 VH with S105G, D108Q
VL: B1 VL
In turn, B2 came in with an equilibrium dissociation constant (Kd) of 1.33 nM.

B3: 401.11.125 (antibody, name in Kabat numbering, V domains shown)
VH: B1 VH with S105G, Y110F
VL: B1 VL
Molecule B3 yielded a dissociation constant (Kd) of 0.535 nM.

B4: 401.11.90 (antibody, name in Kabat numbering, V domains shown)
VH: B1 VH with S105K
VL: B1 VL
Take B4: the Kd is < 0.01 nM.

B5: 401.11.107 (antibody, name in Kabat numbering, V domains shown)
VH: B1 VH with S105G, P107Y
VL: B1 VL
On to B5, for which the dissociation constant Kd was determined as 0.996 nM.

B6: 401.11.111 (antibody, name in Kabat numbering, V domains shown)
VH: B1 VH with S105G, D108R
VL: B1 VL
As to B6, the equilibrium dissociation constant (Kd) is < 0.01 nM.

B7: 401.11.126 (antibody, name in Kabat numbering, V domains shown)
VH: B1 VH with S105G, Y110S
VL: B1 VL
B7 gave a dissociation constant (Kd) of 0.0313 nM.

B8: 401.11.112 (antibody, name in Kabat numbering, V domains shown)
VH: B1 VH with S105G, D108S
VL: B1 VL
In turn, B8 yielded a Kd of 2.43 nM.

B9: 401.11.113 (antibody, name in Kabat numbering, V domains shown)
VH: B1 VH with S105G, D108G
VL: B1 VL
B9 yielded a Kd of 0.679 nM.

B10: 401.11.103 (antibody, name in Kabat numbering, V domains shown)
VH: B1 VH with S105G, P107G
VL: B1 VL
As for B10, the dissociation constant Kd is < 0.01 nM.

B11: 401.11.88 (antibody, name in Kabat numbering, V domains shown)
VH: B1 VH with S105A
VL: B1 VL
For B11, the Kd worked out at 1.89 nM.

B12: 401.11.119 (antibody, name in Kabat numbering, V domains shown)
VH: B1 VH with S105G, G109A
VL: B1 VL
In turn, B12 yielded a dissociation constant (Kd) of 0.877 nM.

B13: 401.11.132 (antibody, name in Kabat numbering, V domains shown)
VH: B1 VH with S105G, S113T
VL: B1 VL
In the case of B13, the dissociation constant (Kd) is 0.569 nM.

B14: 401.11.89 (antibody, name in Kabat numbering, V domains shown)
VH: B1 VH with S105D
VL: B1 VL
Consider B14, for which the Kd is 5.3 nM.

B15: 401.11.136 (antibody, name in Kabat numbering, V domains shown)
VH: B1 VH with S105G, S113K
VL: B1 VL
For the molecule B15, the Kd is < 0.01 nM.

B16: 401.11.108 (antibody, name in Kabat numbering, V domains shown)
VH: B1 VH with S105G, P107R
VL: B1 VL
Consider B16, for which the equilibrium dissociation constant (Kd) was < 0.01 nM.

B17: 401.11.124 (antibody, name in Kabat numbering, V domains shown)
VH: B1 VH with S105G, Y110W
VL: B1 VL
The molecule B17 returned a dissociation constant Kd of 1.38 nM.

B18: 401.11.122 (antibody, name in Kabat numbering, V domains shown)
VH: B1 VH with S105G, G109K
VL: B1 VL
B18 displayed a Kd of 0.13 nM.

B19: 401.11.109 (antibody, name in Kabat numbering, V domains shown)
VH: B1 VH with S105G, P107W
VL: B1 VL
B19: the binding result is recorded as “no binding”.

B20: 401.11.102 (antibody, name in Kabat numbering, V domains shown)
VH: B1 VH with S105G, P107T
VL: B1 VL
On to B20, for which the affinity, expressed as Kd, was 0.457 nM.

B21: 401.11.115 (antibody, name in Kabat numbering, V domains shown)
VH: B1 VH with S105G, D108Y
VL: B1 VL
With B21, binding was characterised by a dissociation constant (Kd) of 0.667 nM.

B22: 401.11.131 (antibody, name in Kabat numbering, V domains shown)
VH: B1 VH with S105G, S113D
VL: B1 VL
Take B22: the Kd worked out at 0.2 nM.

B23: 401.11.118 (antibody, name in Kabat numbering, V domains shown)
VH: B1 VH with S105G, G109S
VL: B1 VL
On to B23, for which the Kd is < 0.01 nM.

B24: 401.11.133 (antibody, name in Kabat numbering, V domains shown)
VH: B1 VH with S105G, S113W
VL: B1 VL
Take B24: the Kd came to 0.167 nM.

B25: 401.11.123 (antibody, name in Kabat numbering, V domains shown)
VH: B1 VH with S105G, G109R
VL: B1 VL
B25 had a Kd of 0.239 nM.

B26: 401.11.127 (antibody, name in Kabat numbering, V domains shown)
VH: B1 VH with S105G, Y110Q
VL: B1 VL
For the molecule B26, the Kd was 2.7 nM.

B27: 401.11.104 (antibody, name in Kabat numbering, V domains shown)
VH: B1 VH with S105G, P107L
VL: B1 VL
B27: binding was characterised by a dissociation constant (Kd) of 0.487 nM.

B28: 401.11.110 (antibody, name in Kabat numbering, V domains shown)
VH: B1 VH with S105G, D108K
VL: B1 VL
As for B28, the dissociation constant Kd came out at 0.247 nM.

B29: 401.11.134 (antibody, name in Kabat numbering, V domains shown)
VH: B1 VH with S105G, S113L
VL: B1 VL
Regarding B29, the Kd worked out at 0.532 nM.

B30: 401.11.116 (antibody, name in Kabat numbering, V domains shown)
VH: B1 VH with S105G, D108F
VL: B1 VL
Consider B30, for which the affinity, expressed as Kd, was 37.7 nM.

B31: 401.11.101 (antibody, name in Kabat numbering, V domains shown)
VH: B1 VH with S105G, P107S
VL: B1 VL
As for B31, the equilibrium dissociation constant (Kd) is < 0.01 nM.

B32: 401.11.135 (antibody, name in Kabat numbering, V domains shown)
VH: B1 VH with S105G, S113V
VL: B1 VL
Take B32: the dissociation constant Kd was 0.421 nM.

Values taken from patent US20140286957A1 (Teva, published 2014).
